B1: human ClC-6 (hClC-6a): AAAA-hClC-6 (protein)
parent chain: MAGCRGSLCCCCRWCCCCGERETRTPEELTILGETQEEEDEILPRKDYESLDYDRCINDPYLEVLETMDNKKGRRYEAVKWMVVFAIGVCTGLVGLFVDFFVRLFTQLKFGVVQTSVEECSQKGCLALSLLELLGFNLTFVFLASLLVLIEPVAAGSGIPEVKCYLNGVKVPGIVRLRTLLCKVLGVLFSVAGGLFVEKEGPMIHSGSVVGAGLPQFQSISLRKIQFNFPYFRSDRDKRDFVSAGAAAGVAAAFGAPIGGTLFSLEEGSSFWNQGLTWKVLFCSMSATFTLNFFRSGIQFGSWGSFQLPGLLNFGEFKCSDSDKKCHLWTAMDLGFFVVMGVIGGLLGATFNCLNKRLAKYRMRNVHPKPKLVRVLESLLVSLVTTVVVFVASMVLGECRQMSSSSQIGNDSFQLQVTEDVNSSIKTFFCPNDTYNDMATLFFNPQESAILQLFHQDGTFSPVTLALFFVLYFLLACWTYGISVPSGLFVPSLLCGAAFGRLVANVLKSYIGLGHIYSGTFALIGAAAFLGGVVRMTISLTVILIESTNEITYGLPIMVTLMVAKWTGDFFNKGIYDIHVGLRGVPLLEWETEVEMDKLRASDIMEPNLTYVYPHTRIQSLVSILRTTVHHAFPVVTENRGNEKEFMKGNQLISNNIKFKKSSILTRAGEQRKRSQSMKSYPSSELRNMCDEHIASEEPAEKEDLLQQMLERRYTPYPNLYPDQSPSEDWTMEERFRPLTFHGLILRSQLVTLLVRGVCYSESQSSASQPRLSYAEMAEDYPRYPDIHDLDLTLLNPRMIVDVTPYMNPSPFTVSPNTHVSQVFNLFRTMGLRHLPVVNAVGEIVGIITRHNLTYEFLQARLRQHYQTI
B2: human ClC-6 (hClC-6a): AAN-hClC-6: N410A/N422A (protein)
parent chain: MAGCRGSLCCCCRWCCCCGERETRTPEELTILGETQEEEDEILPRKDYESLDYDRCINDPYLEVLETMDNKKGRRYEAVKWMVVFAIGVCTGLVGLFVDFFVRLFTQLKFGVVQTSVEECSQKGCLALSLLELLGFNLTFVFLASLLVLIEPVAAGSGIPEVKCYLNGVKVPGIVRLRTLLCKVLGVLFSVAGGLFVEKEGPMIHSGSVVGAGLPQFQSISLRKIQFNFPYFRSDRDKRDFVSAGAAAGVAAAFGAPIGGTLFSLEEGSSFWNQGLTWKVLFCSMSATFTLNFFRSGIQFGSWGSFQLPGLLNFGEFKCSDSDKKCHLWTAMDLGFFVVMGVIGGLLGATFNCLNKRLAKYRMRNVHPKPKLVRVLESLLVSLVTTVVVFVASMVLGECRQMSSSSQIGNDSFQLQVTEDVNSSIKTFFCPNDTYNDMATLFFNPQESAILQLFHQDGTFSPVTLALFFVLYFLLACWTYGISVPSGLFVPSLLCGAAFGRLVANVLKSYIGLGHIYSGTFALIGAAAFLGGVVRMTISLTVILIESTNEITYGLPIMVTLMVAKWTGDFFNKGIYDIHVGLRGVPLLEWETEVEMDKLRASDIMEPNLTYVYPHTRIQSLVSILRTTVHHAFPVVTENRGNEKEFMKGNQLISNNIKFKKSSILTRAGEQRKRSQSMKSYPSSELRNMCDEHIASEEPAEKEDLLQQMLERRYTPYPNLYPDQSPSEDWTMEERFRPLTFHGLILRSQLVTLLVRGVCYSESQSSASQPRLSYAEMAEDYPRYPDIHDLDLTLLNPRMIVDVTPYMNPSPFTVSPNTHVSQVFNLFRTMGLRHLPVVNAVGEIVGIITRHNLTYEFLQARLRQHYQTI
B3: human ClC-6 (hClC-6a): ANA-hClC-6: N410A/N432A (protein)
parent chain: MAGCRGSLCCCCRWCCCCGERETRTPEELTILGETQEEEDEILPRKDYESLDYDRCINDPYLEVLETMDNKKGRRYEAVKWMVVFAIGVCTGLVGLFVDFFVRLFTQLKFGVVQTSVEECSQKGCLALSLLELLGFNLTFVFLASLLVLIEPVAAGSGIPEVKCYLNGVKVPGIVRLRTLLCKVLGVLFSVAGGLFVEKEGPMIHSGSVVGAGLPQFQSISLRKIQFNFPYFRSDRDKRDFVSAGAAAGVAAAFGAPIGGTLFSLEEGSSFWNQGLTWKVLFCSMSATFTLNFFRSGIQFGSWGSFQLPGLLNFGEFKCSDSDKKCHLWTAMDLGFFVVMGVIGGLLGATFNCLNKRLAKYRMRNVHPKPKLVRVLESLLVSLVTTVVVFVASMVLGECRQMSSSSQIGNDSFQLQVTEDVNSSIKTFFCPNDTYNDMATLFFNPQESAILQLFHQDGTFSPVTLALFFVLYFLLACWTYGISVPSGLFVPSLLCGAAFGRLVANVLKSYIGLGHIYSGTFALIGAAAFLGGVVRMTISLTVILIESTNEITYGLPIMVTLMVAKWTGDFFNKGIYDIHVGLRGVPLLEWETEVEMDKLRASDIMEPNLTYVYPHTRIQSLVSILRTTVHHAFPVVTENRGNEKEFMKGNQLISNNIKFKKSSILTRAGEQRKRSQSMKSYPSSELRNMCDEHIASEEPAEKEDLLQQMLERRYTPYPNLYPDQSPSEDWTMEERFRPLTFHGLILRSQLVTLLVRGVCYSESQSSASQPRLSYAEMAEDYPRYPDIHDLDLTLLNPRMIVDVTPYMNPSPFTVSPNTHVSQVFNLFRTMGLRHLPVVNAVGEIVGIITRHNLTYEFLQARLRQHYQTI
B4: human ClC-6 (hClC-6a): NNA-hClC-6: N432A (protein)
parent chain: MAGCRGSLCCCCRWCCCCGERETRTPEELTILGETQEEEDEILPRKDYESLDYDRCINDPYLEVLETMDNKKGRRYEAVKWMVVFAIGVCTGLVGLFVDFFVRLFTQLKFGVVQTSVEECSQKGCLALSLLELLGFNLTFVFLASLLVLIEPVAAGSGIPEVKCYLNGVKVPGIVRLRTLLCKVLGVLFSVAGGLFVEKEGPMIHSGSVVGAGLPQFQSISLRKIQFNFPYFRSDRDKRDFVSAGAAAGVAAAFGAPIGGTLFSLEEGSSFWNQGLTWKVLFCSMSATFTLNFFRSGIQFGSWGSFQLPGLLNFGEFKCSDSDKKCHLWTAMDLGFFVVMGVIGGLLGATFNCLNKRLAKYRMRNVHPKPKLVRVLESLLVSLVTTVVVFVASMVLGECRQMSSSSQIGNDSFQLQVTEDVNSSIKTFFCPNDTYNDMATLFFNPQESAILQLFHQDGTFSPVTLALFFVLYFLLACWTYGISVPSGLFVPSLLCGAAFGRLVANVLKSYIGLGHIYSGTFALIGAAAFLGGVVRMTISLTVILIESTNEITYGLPIMVTLMVAKWTGDFFNKGIYDIHVGLRGVPLLEWETEVEMDKLRASDIMEPNLTYVYPHTRIQSLVSILRTTVHHAFPVVTENRGNEKEFMKGNQLISNNIKFKKSSILTRAGEQRKRSQSMKSYPSSELRNMCDEHIASEEPAEKEDLLQQMLERRYTPYPNLYPDQSPSEDWTMEERFRPLTFHGLILRSQLVTLLVRGVCYSESQSSASQPRLSYAEMAEDYPRYPDIHDLDLTLLNPRMIVDVTPYMNPSPFTVSPNTHVSQVFNLFRTMGLRHLPVVNAVGEIVGIITRHNLTYEFLQARLRQHYQTI
B5: human ClC-6 (hClC-6a): NAA-hClC-6: N422A/N432A (protein)
parent chain: MAGCRGSLCCCCRWCCCCGERETRTPEELTILGETQEEEDEILPRKDYESLDYDRCINDPYLEVLETMDNKKGRRYEAVKWMVVFAIGVCTGLVGLFVDFFVRLFTQLKFGVVQTSVEECSQKGCLALSLLELLGFNLTFVFLASLLVLIEPVAAGSGIPEVKCYLNGVKVPGIVRLRTLLCKVLGVLFSVAGGLFVEKEGPMIHSGSVVGAGLPQFQSISLRKIQFNFPYFRSDRDKRDFVSAGAAAGVAAAFGAPIGGTLFSLEEGSSFWNQGLTWKVLFCSMSATFTLNFFRSGIQFGSWGSFQLPGLLNFGEFKCSDSDKKCHLWTAMDLGFFVVMGVIGGLLGATFNCLNKRLAKYRMRNVHPKPKLVRVLESLLVSLVTTVVVFVASMVLGECRQMSSSSQIGNDSFQLQVTEDVNSSIKTFFCPNDTYNDMATLFFNPQESAILQLFHQDGTFSPVTLALFFVLYFLLACWTYGISVPSGLFVPSLLCGAAFGRLVANVLKSYIGLGHIYSGTFALIGAAAFLGGVVRMTISLTVILIESTNEITYGLPIMVTLMVAKWTGDFFNKGIYDIHVGLRGVPLLEWETEVEMDKLRASDIMEPNLTYVYPHTRIQSLVSILRTTVHHAFPVVTENRGNEKEFMKGNQLISNNIKFKKSSILTRAGEQRKRSQSMKSYPSSELRNMCDEHIASEEPAEKEDLLQQMLERRYTPYPNLYPDQSPSEDWTMEERFRPLTFHGLILRSQLVTLLVRGVCYSESQSSASQPRLSYAEMAEDYPRYPDIHDLDLTLLNPRMIVDVTPYMNPSPFTVSPNTHVSQVFNLFRTMGLRHLPVVNAVGEIVGIITRHNLTYEFLQARLRQHYQTI
B6: human ClC-6 (hClC-6a): ANN-hClC-6: N410A (protein)
parent chain: MAGCRGSLCCCCRWCCCCGERETRTPEELTILGETQEEEDEILPRKDYESLDYDRCINDPYLEVLETMDNKKGRRYEAVKWMVVFAIGVCTGLVGLFVDFFVRLFTQLKFGVVQTSVEECSQKGCLALSLLELLGFNLTFVFLASLLVLIEPVAAGSGIPEVKCYLNGVKVPGIVRLRTLLCKVLGVLFSVAGGLFVEKEGPMIHSGSVVGAGLPQFQSISLRKIQFNFPYFRSDRDKRDFVSAGAAAGVAAAFGAPIGGTLFSLEEGSSFWNQGLTWKVLFCSMSATFTLNFFRSGIQFGSWGSFQLPGLLNFGEFKCSDSDKKCHLWTAMDLGFFVVMGVIGGLLGATFNCLNKRLAKYRMRNVHPKPKLVRVLESLLVSLVTTVVVFVASMVLGECRQMSSSSQIGNDSFQLQVTEDVNSSIKTFFCPNDTYNDMATLFFNPQESAILQLFHQDGTFSPVTLALFFVLYFLLACWTYGISVPSGLFVPSLLCGAAFGRLVANVLKSYIGLGHIYSGTFALIGAAAFLGGVVRMTISLTVILIESTNEITYGLPIMVTLMVAKWTGDFFNKGIYDIHVGLRGVPLLEWETEVEMDKLRASDIMEPNLTYVYPHTRIQSLVSILRTTVHHAFPVVTENRGNEKEFMKGNQLISNNIKFKKSSILTRAGEQRKRSQSMKSYPSSELRNMCDEHIASEEPAEKEDLLQQMLERRYTPYPNLYPDQSPSEDWTMEERFRPLTFHGLILRSQLVTLLVRGVCYSESQSSASQPRLSYAEMAEDYPRYPDIHDLDLTLLNPRMIVDVTPYMNPSPFTVSPNTHVSQVFNLFRTMGLRHLPVVNAVGEIVGIITRHNLTYEFLQARLRQHYQTI
B7: human ClC-6 (hClC-6a): NAN-hClC-6: N422A (protein)
parent chain: MAGCRGSLCCCCRWCCCCGERETRTPEELTILGETQEEEDEILPRKDYESLDYDRCINDPYLEVLETMDNKKGRRYEAVKWMVVFAIGVCTGLVGLFVDFFVRLFTQLKFGVVQTSVEECSQKGCLALSLLELLGFNLTFVFLASLLVLIEPVAAGSGIPEVKCYLNGVKVPGIVRLRTLLCKVLGVLFSVAGGLFVEKEGPMIHSGSVVGAGLPQFQSISLRKIQFNFPYFRSDRDKRDFVSAGAAAGVAAAFGAPIGGTLFSLEEGSSFWNQGLTWKVLFCSMSATFTLNFFRSGIQFGSWGSFQLPGLLNFGEFKCSDSDKKCHLWTAMDLGFFVVMGVIGGLLGATFNCLNKRLAKYRMRNVHPKPKLVRVLESLLVSLVTTVVVFVASMVLGECRQMSSSSQIGNDSFQLQVTEDVNSSIKTFFCPNDTYNDMATLFFNPQESAILQLFHQDGTFSPVTLALFFVLYFLLACWTYGISVPSGLFVPSLLCGAAFGRLVANVLKSYIGLGHIYSGTFALIGAAAFLGGVVRMTISLTVILIESTNEITYGLPIMVTLMVAKWTGDFFNKGIYDIHVGLRGVPLLEWETEVEMDKLRASDIMEPNLTYVYPHTRIQSLVSILRTTVHHAFPVVTENRGNEKEFMKGNQLISNNIKFKKSSILTRAGEQRKRSQSMKSYPSSELRNMCDEHIASEEPAEKEDLLQQMLERRYTPYPNLYPDQSPSEDWTMEERFRPLTFHGLILRSQLVTLLVRGVCYSESQSSASQPRLSYAEMAEDYPRYPDIHDLDLTLLNPRMIVDVTPYMNPSPFTVSPNTHVSQVFNLFRTMGLRHLPVVNAVGEIVGIITRHNLTYEFLQARLRQHYQTI

test: confocal colocalisation with GFP-Rab4, transfected HeLa/COS-1; settings: glycan lost; control: wild type

localisation_or_trafficking, no change:
B1, B2, B3, B4, B5, B6, B7

— publication PMC1868598
